Paper PMC9352680, “A comprehensive thermodynamic model for RNA binding by the Saccharomyces cerevisiae Pumilio protein PUF4”
Changes are numbered by the printed parent chain. In names and notes the source's numbering stands.

T1: PUF4 RNA-binding domain (Saccharomyces cerevisiae, UniProt P25339 537-888)
T1 sequence: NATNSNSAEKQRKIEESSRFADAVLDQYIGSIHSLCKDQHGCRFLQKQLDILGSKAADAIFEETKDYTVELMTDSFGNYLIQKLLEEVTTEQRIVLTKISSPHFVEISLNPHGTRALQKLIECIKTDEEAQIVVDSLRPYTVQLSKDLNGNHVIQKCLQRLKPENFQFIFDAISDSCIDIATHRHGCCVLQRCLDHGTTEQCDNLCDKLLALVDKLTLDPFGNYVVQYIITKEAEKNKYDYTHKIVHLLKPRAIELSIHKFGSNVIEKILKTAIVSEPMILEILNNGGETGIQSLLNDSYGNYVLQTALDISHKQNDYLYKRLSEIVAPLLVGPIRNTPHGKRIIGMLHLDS

B1: Ib_S2_P3E.1_K3.1_C3.1_H3.1_[T1C]_A3.1_F3.1_[T7A]_T3.1 (ssRNA)
RNA: UUUGAUUAAUAUGAUAUCGUUCUUUCUCGUAUAAAUUCUUUCUCGAUAUCAUAUUAAUCUUU
B2: Ib_S2_P3E.1_K3.1_C3.1_H3.1_[A4G]_A3.1_F3.1_[T7A]_T3.1 (ssRNA)
RNA: B1 RNA with C28U, A31G
B3: Ib_S2_P3E.1_K3.1_C3.1_H3.1_[G2C]_A3.1_F3.1_[T7A]_T3.1 (ssRNA)
RNA: B1 RNA with C28U, G29C
B4: Ib_S2_P3E.1_K3.1_C3.1_H3.1_[A4T]_A3.1_F3.1_[T7A]_T3.1 (ssRNA)
RNA: B1 RNA with C28U, A31U
B5: Ib_S2_P3E.1_K3.1_C3.1_H3.1_[T1G]_A3.1_F3.1_[A8G]_T3.1 (ssRNA)
RNA: B1 RNA with C28G, A34U, A35G

Target: T1, PUF4 RNA-binding domain
Experiment: Mg; RNA-MaP; 20 mM Na-HEPES pH 7.4, 30 mM KOAc, 0.75 mM MgCl2, 0.1% Tween-20, 5% glycerol, 0.1 mg/mL BSA, 2 mM DTT; 25 C; 0.0125-409.6 nM protein
Conditions: tags: N-His6-TEV cleaved; C-SNAP kept, Cy3B-labelled; label: tethered on chip by stalled RNA polymerase

Binder	Kd [nM]
UCUCUUUUUGUAUUAUUAUCUCUU (ssRNA) [Ie_S1_P5E.1_K5.1_C5.1_H5.1_[+1TT]_A5.1_F5.1_T5.1]	7.17
UCUCUUUGUAUAUUCCUCAUCUCUU (ssRNA) [Ie_S1_P4E.1_K4.1_C4.1_H4.1_A4.1_F4.1_[+8CCTC]_T4.1]	6.83
UCUCUUUGUAUAUUUCUCUAUCUCUU (ssRNA) [Ie_S1_P4E.1_K4.1_C4.1_H4.1_A4.1_F4.1_[+8TCTCT]_T4.1]	6.66
UCUCUUUGUAUAUUCUCAUCUCUU (ssRNA) [Ie_S1_P4E.1_K4.1_C4.1_H4.1_A4.1_F4.1_[+8CTC]_T4.1]	10.8
UCUCUUUGUAUAUCCUCUUAUCUCUU (ssRNA) [Ie_S1_P4E.1_K4.1_C4.1_H4.1_A4.1_[+7CCTCT]_F4.1_T4.1]	31.7
UCUCUUUGUAUAUUAUUCUCUCUU (ssRNA) [Ie_S1_P4E.1_K4.1_C4.1_H4.1_A4.1_F4.1_[+9TTC]_T4.1]	0.488
UCUCUUUGUAUAUUACCUUCUCUU (ssRNA) [Ie_S1_P4E.1_K4.1_C4.1_H4.1_A4.1_F4.1_[+9CCT]_T4.1]	0.795
UCUCUUUGUAUAUUAUCCUCUCUU (ssRNA) [Ie_S1_P4E.1_K4.1_C4.1_H4.1_A4.1_F4.1_[+9TCC]_T4.1]	0.48
UCUCUUUGUAUAUUCCCUAUCUCUU (ssRNA) [Ie_S1_P4E.1_K4.1_C4.1_H4.1_A4.1_F4.1_[+8CCCT]_T4.1]	6.32
UCUCUUUUCUCUGUAUUAUUAUCUCUU (ssRNA) [Ie_S1_P5E.1_K5.1_C5.1_H5.1_[+1TCTCT]_A5.1_F5.1_T5.1]	7.43
UCUCUUUUCGUAUUAUUAUCUCUU (ssRNA) [Ie_S1_P5E.1_K5.1_C5.1_H5.1_[+1TC]_A5.1_F5.1_T5.1]	1240
UCUCUUUGUAUAUUACCUCUUCUCUU (ssRNA) [Ie_S1_P4E.1_K4.1_C4.1_H4.1_A4.1_F4.1_[+9CCTCT]_T4.1]	1.58
UCUCUUUUUCCGUAUUAUUAUCUCUU (ssRNA) [Ie_S1_P5E.1_K5.1_C5.1_H5.1_[+1TTCC]_A5.1_F5.1_T5.1]	> 2300
UCUCUUUCUCUGUAUUAUUAUCUCUU (ssRNA) [Ie_S1_P5E.1_K5.1_C5.1_H5.1_[+1CTCT]_A5.1_F5.1_T5.1]	7.73
UCUCUUUGUAUAUUACUCUCUCUU (ssRNA) [Ie_S1_P4E.1_K4.1_C4.1_H4.1_A4.1_F4.1_[+9CTC]_T4.1]	1.09
UCUCUUUCUGUAUUAUUAUCUCUU (ssRNA) [Ie_S1_P5E.1_K5.1_C5.1_H5.1_[+1CT]_A5.1_F5.1_T5.1]	3.96
UCUCUUUGUAUAUUUUCCUAUCUCUU (ssRNA) [Ie_S1_P4E.1_K4.1_C4.1_H4.1_A4.1_F4.1_[+8TTCCT]_T4.1]	5.96
UCUCUUUGUAUAUUAUUUCUCUU (ssRNA) [Ie_S1_P4E.1_K4.1_C4.1_H4.1_A4.1_F4.1_[+9TT]_T4.1]	0.545
UCUCUUUGUAUAUUCCUCUAUCUCUU (ssRNA) [Ie_S1_P4E.1_K4.1_C4.1_H4.1_A4.1_F4.1_[+8CCTCT]_T4.1]	6.71
UCUCUUUCUUGUAUUAUUAUCUCUU (ssRNA) [Ie_S1_P5E.1_K5.1_C5.1_H5.1_[+1CTT]_A5.1_F5.1_T5.1]	4.33

Binder	Kd [nM]
UCUCUUUGUAUAUUAUCUCUCUCUU (ssRNA) [Ie_S1_P4E.1_K4.1_C4.1_H4.1_A4.1_F4.1_[+9TCTC]_T4.1]	0.601
UCUCUUUGUAUAUUACUUCUCUU (ssRNA) [Ie_S1_P4E.1_K4.1_C4.1_H4.1_A4.1_F4.1_[+9CT]_T4.1]	0.578
UCUCUUUUUUGUAUUAUUAUCUCUU (ssRNA) [Ie_S1_P5E.1_K5.1_C5.1_H5.1_[+1TTT]_A5.1_F5.1_T5.1]	6.28
UCUCUUUGUAUAUUAUUCCUCUCUU (ssRNA) [Ie_S1_P4E.1_K4.1_C4.1_H4.1_A4.1_F4.1_[+9TTCC]_T4.1]	0.476
UCUCUUUCGUAUUAUUAUCUCUU (ssRNA) [Ie_S1_P5E.1_K5.1_C5.1_H5.1_[+1C]_A5.1_F5.1_T5.1]	1320
UCUCUUUGUAUAUUAUCUCUCUU (ssRNA) [Ie_S1_P4E.1_K4.1_C4.1_H4.1_A4.1_F4.1_[+9TC]_T4.1]	0.435
UCUCUUUGUAUAUUUUCAUCUCUU (ssRNA) [Ie_S1_P4E.1_K4.1_C4.1_H4.1_A4.1_F4.1_[+8TTC]_T4.1]	6.76
UCUCUUUGUAUAUUAUCUCUUCUCUU (ssRNA) [Ie_S1_P4E.1_K4.1_C4.1_H4.1_A4.1_F4.1_[+9TCTCT]_T4.1]	0.824
UCUCUUUCCUCUGUAUUAUUAUCUCUU (ssRNA) [Ie_S1_P5E.1_K5.1_C5.1_H5.1_[+1CCTCT]_A5.1_F5.1_T5.1]	4.35
B1	> 2300
B2	35.3
B3	> 2300
B4	1590
B5	1140
UCUCUUUGUAUAUCUCUCUAUCUCUU (ssRNA) [Ie_S1_P4E.1_K4.1_C4.1_H4.1_A4.1_[+7CTCTC]_F4.1_T4.1]	15.9
UCUCUUUUGUAUUAUUAUCUCUU (ssRNA) [Ie_S1_P5E.1_K5.1_C5.1_H5.1_[+1T]_A5.1_F5.1_T5.1]	5.92
UCUCUUUGUAUAUUAUUUUCUCUU (ssRNA) [Ie_S1_P4E.1_K4.1_C4.1_H4.1_A4.1_F4.1_[+9TTT]_T4.1]	0.453
UCUCUUUCCUCGUAUUAUUAUCUCUU (ssRNA) [Ie_S1_P5E.1_K5.1_C5.1_H5.1_[+1CCTC]_A5.1_F5.1_T5.1]	1350
UCUCUUUGUAUAUUCUCUCAUCUCUU (ssRNA) [Ie_S1_P4E.1_K4.1_C4.1_H4.1_A4.1_F4.1_[+8CTCTC]_T4.1]	5.64
UCUCUUUCCUGUAUUAUUAUCUCUU (ssRNA) [Ie_S1_P5E.1_K5.1_C5.1_H5.1_[+1CCT]_A5.1_F5.1_T5.1]	7.97

Binder	Kd [nM]
UCUCUUUGUAUAUUACCUCUCUCUU (ssRNA) [Ie_S1_P4E.1_K4.1_C4.1_H4.1_A4.1_F4.1_[+9CCTC]_T4.1]	0.706
UCUCUUUCCCUGUAUUAUUAUCUCUU (ssRNA) [Ie_S1_P5E.1_K5.1_C5.1_H5.1_[+1CCCT]_A5.1_F5.1_T5.1]	5.88
UCUCUUUUCUGUAUUAUUAUCUCUU (ssRNA) [Ie_S1_P5E.1_K5.1_C5.1_H5.1_[+1TCT]_A5.1_F5.1_T5.1]	4.9
UCUCUUUCUCGUAUUAUUAUCUCUU (ssRNA) [Ie_S1_P5E.1_K5.1_C5.1_H5.1_[+1CTC]_A5.1_F5.1_T5.1]	1250
UCUCUUUGUAUAUUUCCUUAUCUCUU (ssRNA) [Ie_S1_P4E.1_K4.1_C4.1_H4.1_A4.1_[+7TTCCT]_F4.1_T4.1]	3.91
UCUCUUUCUCUCGUAUUAUUAUCUCUU (ssRNA) [Ie_S1_P5E.1_K5.1_C5.1_H5.1_[+1CTCTC]_A5.1_F5.1_T5.1]	1240
UCUCUUUGUAUAUUACCUCUCUU (ssRNA) [Ie_S1_P4E.1_K4.1_C4.1_H4.1_A4.1_F4.1_[+9CC]_T4.1]	0.729
UCUCUUUCCCGUAUUAUUAUCUCUU (ssRNA) [Ie_S1_P5E.1_K5.1_C5.1_H5.1_[+1CCC]_A5.1_F5.1_T5.1]	1340
UCUCUUUUUCGUAUUAUUAUCUCUU (ssRNA) [Ie_S1_P5E.1_K5.1_C5.1_H5.1_[+1TTC]_A5.1_F5.1_T5.1]	1620
UCUCUUUCCCUUGUAUUAUUAUCUCUU (ssRNA) [Ie_S1_P5E.1_K5.1_C5.1_H5.1_[+1CCCTT]_A5.1_F5.1_T5.1]	5.34
UCUCUUUGUAUAUUAUCUUCUCUU (ssRNA) [Ie_S1_P4E.1_K4.1_C4.1_H4.1_A4.1_F4.1_[+9TCT]_T4.1]	0.632
UCUCUUUGUAUAUUACCCUUUCUCUU (ssRNA) [Ie_S1_P4E.1_K4.1_C4.1_H4.1_A4.1_F4.1_[+9CCCTT]_T4.1]	0.925
UCUCUUUGUAUAUUUUCCAUCUCUU (ssRNA) [Ie_S1_P4E.1_K4.1_C4.1_H4.1_A4.1_F4.1_[+8TTCC]_T4.1]	5.8
UCUCUUUGUAUAUUUCAUCUCUU (ssRNA) [Ie_S1_P4E.1_K4.1_C4.1_H4.1_A4.1_F4.1_[+8TC]_T4.1]	5.5
UCUCUUUGUAUAUUACUCUUCUCUU (ssRNA) [Ie_S1_P4E.1_K4.1_C4.1_H4.1_A4.1_F4.1_[+9CTCT]_T4.1]	0.906
UCUCUUUGUAUAUUAUUCUCUU (ssRNA) [Ie_S1_P4E.1_K4.1_C4.1_H4.1_A4.1_F4.1_[+9T]_T4.1]	0.531
UCUCUUUGUAUAUUACUCUCUCUCUU (ssRNA) [Ie_S1_P4E.1_K4.1_C4.1_H4.1_A4.1_F4.1_[+9CTCTC]_T4.1]	0.699
UCUCUUUUCUCGUAUUAUUAUCUCUU (ssRNA) [Ie_S1_P5E.1_K5.1_C5.1_H5.1_[+1TCTC]_A5.1_F5.1_T5.1]	1230
UCUCUUUGUAUAUUACCCUCUCUU (ssRNA) [Ie_S1_P4E.1_K4.1_C4.1_H4.1_A4.1_F4.1_[+9CCC]_T4.1]	1.11
UCUCUUUGUAUAUUAUUCCUUCUCUU (ssRNA) [Ie_S1_P4E.1_K4.1_C4.1_H4.1_A4.1_F4.1_[+9TTCCT]_T4.1]	0.347
